Literature values in publication PMC3508151.
Like-named read-outs stand apart in the source and are kept apart here.

Tests used:
[1] = target: IL-13Rα1 (Homo sapiens) (UniProt P78552); conditions: cited from earlier work
[2] = target: IL-13Rα1 (Homo sapiens) (UniProt P78552); conditions: cited from earlier work; remark: listed apart in the source

Chain of IL-13Rα1 (Homo sapiens) (P78552 22-343): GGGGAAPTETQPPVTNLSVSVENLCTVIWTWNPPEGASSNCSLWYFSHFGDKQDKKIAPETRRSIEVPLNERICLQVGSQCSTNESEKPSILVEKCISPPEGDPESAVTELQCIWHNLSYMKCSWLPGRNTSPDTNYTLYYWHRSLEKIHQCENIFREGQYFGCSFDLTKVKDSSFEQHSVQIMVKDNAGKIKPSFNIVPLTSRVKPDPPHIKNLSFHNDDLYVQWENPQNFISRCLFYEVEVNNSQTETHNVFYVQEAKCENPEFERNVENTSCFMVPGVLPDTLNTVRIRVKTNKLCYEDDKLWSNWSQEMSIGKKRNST
Chain of IL-13 (P35225 25-146): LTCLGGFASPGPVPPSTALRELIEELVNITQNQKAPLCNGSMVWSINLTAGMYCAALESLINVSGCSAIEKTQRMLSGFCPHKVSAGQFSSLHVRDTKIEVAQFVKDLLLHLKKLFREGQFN
Chain of IL-4 (P05112 25-153): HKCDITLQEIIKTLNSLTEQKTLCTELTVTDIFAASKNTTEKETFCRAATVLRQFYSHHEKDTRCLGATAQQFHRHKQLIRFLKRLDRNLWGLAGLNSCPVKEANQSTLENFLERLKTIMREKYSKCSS

## IL-13
[1]
  Kd: 30 nM

## IL-4 (from UniProt P05112)
[2]
  Kd: > 1000 nM
